# B1: Anti-IL-21: Mouse surrogate anti-IL-21 antibody, mIgG1/kappa isotype, VL SEQ ID NO:26 and VH SEQ ID NO:27, raised against recombinant mouse IL-21 (antibody, V domains shown)
# VH: MNFGPSLIFLVLILKGVQCEVQLVESGGGLVKPGGSLKLSCAASGFTFNRYSMSWVRQSPEKRLEWVAEISVGGSYTQYVDIVTGRFTISRDNAKNTLYLEMSSLRSEDTAMYYCARLYYSGSGDSYYYAMDYWGQGTSVTVSS
# VL: MDFQVQIFSFLLISASVILSRGQTVLIQSPAIMSASPGEKVTMTCSASSSVSYMHWYQQKSGTSPKRWIYDTSKLASGVPARFSGSGSGTSYSLTISSMEAEDAATYYCQQWNSNPPTFGGGTKLEMK
# Key:
# [1] = test system: recent-onset NOD mouse model; assay: Determination of blood glucose effect in recent-onset NOD model (Assay V; Examples 1-3); assay type: in vivo
# Description: Assay (V): Determination of Blood Glucose Effect in NOD Model
# The purpose of this experiment was to determine the effect of administration of a GLP-1 agonist, such as the GLP-1 peptide, and/or an inhibitor of IL-21 function on blood glucose.
# (§1) The recent-onset NOD mouse model was used. Mice were screened twice weekly and diabetes onset was defined as 2 consecutive blood glucose values of >250 mg/dL. Mice were enrolled into the experiment starting at 11 weeks of age and continued to be enrolled through 26 weeks of age. Dosing was weight based.
# (§2) Blood glucose was measured by using a blood glucose meter (Bayer Contour USB) with the corresponding blood glucose strips. Mice with a blood glucose level>250 mg/dL on two consecutive days were considered diabetic. […] If the measurement was again >250 mg/dL, the animal was recorded as diabetic, enrolled into a treatment group, and was monitored further until it reached two consecutive readings of >600 mg/dL. At this time the mouse was sacrificed. Mice were also sacrificed before they reached a blood glucose value of >600 mg/dL if their overall condition was deteriorating, as determined by weight and/or overall appearance.
# The mouse surrogate anti-IL-21 antibody was prepared by immunization of 6 to 8 week old BALB/c mice by s.c. injection with recombinant mouse IL-21 in a mixture of adjuvants. […] (SEQ ID No 13).
# (§3) Anti-IL-21 was administered i.p. five times twice weekly starting immediately after inclusion of mice, i.e. from Day 0. […] Mouse surrogate anti-IL-21 is an mIgG1/kappa isotype with the VL amino acid sequence: […] […] […] (SEQ ID NO:26), and the VH amino acid sequence: […] […] […] (SEQ ID NO:27). […] Before use, anti-IL-21 was diluted in buffer (20 mM phosphate, 150 mM NaCl, pH=7.4). Aliquots of anti-IL-21 for injection into the animals were only thawed once.
# Enrolment of mice of as described in Example 1 was continued adding 9, 8, 8 and 8 subjects to the treatment groups 1 to 4, respectively.
# [2] = test system: recent-onset NOD mouse model; assay: Liraglutide in combination with Anti-IL-21 in the NOD model, confirmation study (Example 4); assay type: in vivo
# Description: as §1, §2, §3
# [3] = test system: pancreatic tissue (islets, insulitis) of NOD mice; assay: Histological examination of pancreatic tissue of NOD mice (H&E, CD8/CD4 and insulin staining); assay type: in vivo, mouse
# Description: Histological examination: The histological analyses were performed on pancreatic tissue from a subset of mice from each group. Sections were stained with Hematoxylin and eosin (H&E) to assess insulitis and immunofluorescent staining with either CD8 and insulin or CD4 and insulin to assess insulitis and also characterize cell types within infiltrates.
# [4] = target: murine IL-21 (Mus musculus, UniProt Q9ES17); assay: Inhibition of IL-21 mediated STAT-3 phosphorylation in BaF3/KZ134/hIL-21R cells (Assay III); assay type: cell-based; settings: selected antibody clone
# Description: Assay (III): Inhibition of IL-21 Mediated STAT-3 Phosphorylation.
# The ability of anti-IL-21 antibodies to neutralize IL-21 can be measured in a cell based assay using phosphorylation of STAT3 as read-out. BaF3 cells transfected with IL-21 receptor (IL-21R) are used and as IL-21 induces STAT3 phosphorylation reduction hereof by an anti-IL-21 antibody reflects the IL-21 neutralization activity.
# Reduction in murine IL-21 activity in the presence of antibody containing supernatant was determined by measuring the level of STAT3-phosphorylation following ligand-receptor interaction in BaF3/KZ134/hIL-21R cells.
# Relative neutralization activity was determined based on the percentage decrease in phosphorylated-STAT3 levels relative to control cells incubated with ligand alone. Baf3/KZ134/hIL-21R cells are plated in 96-well round-bottom tissue culture plates at a density of 50,000 cells/well. Murine IL-21 was pre-incubated with the supernatant from each tested well before transfer to the plated cells. The reactions were stopped and cells lyzed according to the manufacturer's instructions, (BIO-RAD Laboratories). Supernatants were collected, mixed with assay buffer and stored. […] The level of phosphorylated-STAT3 was determined on an array reader (BIO-PLEX, BIO-RAD Laboratories) according to the manufacturer's instructions. […]
molecule,measurement,setting,value
B1,Effect on hyperglycemia (in words),"[1]; Example 1, NOD mice, 70 days",able to reverse hyperglycemia in some of the mice
same,Mice in which diabetes was reversed (BGV lowered to below 250 mg/dL),"[1]; Examples 1 and 2 compiled, FIG. 5A, 35 days period",half of the mice
same,Number of mice surviving / remaining viable throughout the study period of 70 days (in words),"[1]; Examples 1 and 2 compiled, FIGS. 3 and 4",substantial number
same,Average blood glucose +/− SD,"[1]; Table 1, Example 1 mice (N = 10 per group at onset), day 0 post diabetes onset",351 ± 56 mg/dL
same,Average blood glucose +/− SD,"[1]; Table 1, Example 1 mice, day 4 post diabetes onset",370 ± 73 mg/dL
same,Average blood glucose +/− SD,"[1]; Table 1, Example 1 mice, day 7 post diabetes onset",404 ± 93 mg/dL
same,Average blood glucose +/− SD,"[1]; Table 1, Example 1 mice, day 11 post diabetes onset",405 ± 160 mg/dL
same,Average blood glucose +/− SD,"[1]; Table 1, Example 1 mice, day 14 post diabetes onset",379 +/− 139 (n = 8) mg/dL
same,Average blood glucose +/− SD,"[1]; Table 1, Example 1 mice, day 18 post diabetes onset",351 +/− 178 (n = 7) mg/dL
same,Average blood glucose +/− SD,"[1]; Table 1, Example 1 mice, day 21 post diabetes onset",285 +/− 151 (n = 6) mg/dL
same,Average blood glucose +/− SD,"[1]; Table 1, Example 1 mice, day 25 post diabetes onset",279 +/− 169 (n = 6) mg/dL
same,Average blood glucose +/− SD,"[1]; Table 1, Example 1 mice, day 28 post diabetes onset",204 +/− 95 (n = 5) mg/dL
same,Average blood glucose +/− SD,"[1]; Table 1, Example 1 mice, day 32 post diabetes onset",221 +/− 101 (n = 5) mg/dL
same,Average blood glucose +/− SD,"[1]; Table 1, Example 1 mice, day 35 post diabetes onset",205 +/− 116 (n = 5) mg/dL
same,Average blood glucose +/− SD,"[1]; Table 1, Example 1 mice, day 39 post diabetes onset (liraglutide withdrawn after day 35)",224 +/− 140 (n = 5) mg/dL
same,Average blood glucose +/− SD,"[1]; Table 1, Example 1 mice, day 42 post diabetes onset (liraglutide withdrawn after day 35)",215 +/− 112 (n = 5) mg/dL
same,Average blood glucose +/− SD,"[1]; Table 1, Example 1 mice, day 46 post diabetes onset (liraglutide withdrawn after day 35)",201 +/− 122 (n = 5) mg/dL
same,Average blood glucose +/− SD,"[1]; Table 1, Example 1 mice, day 49 post diabetes onset (liraglutide withdrawn after day 35)",217 +/− 140 (n = 5) mg/dL
same,Average blood glucose +/− SD,"[1]; Table 1, Example 1 mice, day 53 post diabetes onset (liraglutide withdrawn after day 35)",229 +/− 186 (n = 5) mg/dL
same,Average blood glucose +/− SD,"[1]; Table 1, Example 1 mice, day 56 post diabetes onset (liraglutide withdrawn after day 35)",128 +/− 10 (n = 4) mg/dL
same,Average blood glucose +/− SD,"[1]; Table 1, Example 1 mice, day 60 post diabetes onset (liraglutide withdrawn after day 35)",174 +/− 59 (n = 4) mg/dL
same,Average blood glucose +/− SD,"[1]; Table 1, Example 1 mice, day 63 post diabetes onset (liraglutide withdrawn after day 35)",156 +/− 30 (n = 4) mg/dL
same,Average blood glucose +/− SD,"[1]; Table 1, Example 1 mice, day 67 post diabetes onset (liraglutide withdrawn after day 35)",138 +/− 16 (n = 4) mg/dL
same,Average blood glucose +/− SD,"[1]; Table 1, Example 1 mice, day 70 post diabetes onset (liraglutide withdrawn after day 35)",153 +/− 30 (n = 4) mg/dL
same,Average blood glucose +/− SD,"[1]; Table 2, additional mice (Example 2), day 0 post diabetes onset",353 +/− 59 (n = 8) mg/dL
same,Average blood glucose +/− SD,"[1]; Table 2, additional mice (Example 2), day 4 post diabetes onset",326 +/− 104 (n = 8) mg/dL
same,Average blood glucose +/− SD,"[1]; Table 2, additional mice (Example 2), day 7 post diabetes onset",375 +/− 103 (n = 8) mg/dL
same,Average blood glucose +/− SD,"[1]; Table 2, additional mice (Example 2), day 11 post diabetes onset",361 +/− 125 (n = 8) mg/dL
same,Average blood glucose +/− SD,"[1]; Table 2, additional mice (Example 2), day 14 post diabetes onset",338 +/− 153 (n = 8) mg/dL
same,Average blood glucose +/− SD,"[1]; Table 2, additional mice (Example 2), day 18 post diabetes onset",336 +/− 183 (n = 8) mg/dL
same,Average blood glucose +/− SD,"[1]; Table 2, additional mice (Example 2), day 21 post diabetes onset",248 +/− 153 (n = 6) mg/dL
same,Average blood glucose +/− SD,"[1]; Table 2, additional mice (Example 2), day 28 post diabetes onset",219 +/− 162 (n = 6) mg/dL
same,Average blood glucose +/− SD,"[1]; Table 2, additional mice (Example 2), day 35 post diabetes onset",147 +/− 15 (n = 5) mg/dL
same,Average blood glucose +/− SD,"[1]; Table 2, additional mice (Example 2), day 42 post diabetes onset (liraglutide withdrawn after day 35)",264 +/− 121 (n = 2^#) mg/dL
same,Average blood glucose +/− SD,"[1]; Table 2, additional mice (Example 2), day 49 post diabetes onset (liraglutide withdrawn after day 35)",118 +/− 17 (n = 2) mg/dL
same,Average blood glucose +/− SD,"[1]; Table 2, additional mice (Example 2), day 56 post diabetes onset (liraglutide withdrawn after day 35)",286 +/− 107 (n = 2) mg/dL
same,Average blood glucose +/− SD,"[1]; Table 2, additional mice (Example 2), day 63 post diabetes onset (liraglutide withdrawn after day 35)",314 +/− 157 (n = 2) mg/dL
same,Average blood glucose +/− SD,"[1]; Table 2, additional mice (Example 2), day 70 post diabetes onset (liraglutide withdrawn after day 35)",400 +/− 108 (n = 2) mg/dL
same,Average blood glucose +/− SD,"[1]; Table 3, all mice (Examples 1 and 2 compiled), day 0 post diabetes onset",352 +/− 57 (n = 18) mg/dL
same,Average blood glucose +/− SD,"[1]; Table 3, all mice (Examples 1 and 2 compiled), day 4 post diabetes onset",351 +/− 91 (n = 18) mg/dL
same,Average blood glucose +/− SD,"[1]; Table 3, all mice (Examples 1 and 2 compiled), day 7 post diabetes onset",391 +/− 99 (n = 18) mg/dL
same,Average blood glucose +/− SD,"[1]; Table 3, all mice (Examples 1 and 2 compiled), day 11 post diabetes onset",385 +/− 147 (n = 18) mg/dL
same,Average blood glucose +/− SD,"[1]; Table 3, all mice (Examples 1 and 2 compiled), day 14 post diabetes onset",358 +/− 148 (n = 16) mg/dL
same,Average blood glucose +/− SD,"[1]; Table 3, all mice (Examples 1 and 2 compiled), day 18 post diabetes onset",343 +/− 181 (n = 15) mg/dL
same,Average blood glucose +/− SD,"[1]; Table 3, all mice (Examples 1 and 2 compiled), day 21 post diabetes onset",267 +/− 153 (n = 12) mg/dL
same,Average blood glucose +/− SD,"[1]; Table 3, all mice (Examples 1 and 2 compiled), day 28 post diabetes onset",212 +/− 136 (n = 11) mg/dL
same,Average blood glucose +/− SD,"[1]; Table 3, all mice (Examples 1 and 2 compiled), day 35 post diabetes onset",176 +/− 88 (n = 10) mg/dL
same,Average blood glucose +/− SD,"[1]; Table 3, all mice (Examples 1 and 2 compiled), day 42 post diabetes onset (liraglutide withdrawn after day 35)",229 +/− 117 (n = 7^#) mg/dL
same,Average blood glucose +/− SD,"[1]; Table 3, all mice (Examples 1 and 2 compiled), day 49 post diabetes onset (liraglutide withdrawn after day 35)",189 +/− 127 (n = 7) mg/dL
same,Average blood glucose +/− SD,"[1]; Table 3, all mice (Examples 1 and 2 compiled), day 56 post diabetes onset (liraglutide withdrawn after day 35)",181 +/− 97 (n = 6) mg/dL
same,Average blood glucose +/− SD,"[1]; Table 3, all mice (Examples 1 and 2 compiled), day 63 post diabetes onset (liraglutide withdrawn after day 35)",209 +/− 119 (n = 6) mg/dL
same,Average blood glucose +/− SD,"[1]; Table 3, all mice (Examples 1 and 2 compiled), day 70 post diabetes onset (liraglutide withdrawn after day 35)",236 +/− 134 (n = 6) mg/dL
same,Survival through 70 days post onset of hyperglycaemia,[2]; Example 4,75%
same,Mice with established hyperglycaemia cured / reversed,"[2]; Example 4, first 35 days post disease onset",75%
same,Cellular infiltration of pancreas (in words),[3]; subset of mice from each group,decreased extent of infiltration
same,Insulitis (in words),[3]; surviving mice,reduced
same,Neutralizing activity in STAT3 phosphorylation assay (in words),[4],strong neutralizing activity

# Source: US10105442B2, “Treatment of diabetes type 1 using GLP-1 and anti-IL-21” (Novo Nordisk A/S, priority 2014, dated 2018)
